Results from the supplement of paper PMC9112550, “Optimization of the antimicrobial peptide Bac7 by deep mutational scanning” (BMC Biology, 2022).

These sequences were tested on Escherichia coli TOP10 (assay: shrunken log2 fold change of peptide-encoding DNA abundance (4.5 h post-induction vs induction); higher = less antimicrobial activity (less host growth inhibition)). Details: time post-induction: 4.5 h; library: site-saturation at positions 5, 18, 19, 20.
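Also: peptides expressed intracellularly from a pBAD plasmid library in pooled LB shake-flask culture, induced with 0.3% L-arabinose, DNA abundance read by NGS, three biological replicates, DESeq2 with apeglm shrinkage.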

| Sequence | shrunken log2 fold change |
| --- | --- |
| RRIRSRPPRLPRPRPRPTQGPRP | 0.36 |
| RRIRARPPRLPRPRPRPYVQPRP | -0.471 |
| RRIRVRPPRLPRPRPRPTCGPRP | 0.0207 |
| RRIRCRPPRLPRPRPRPVDEPRP | 2.09 |
| RRIRLRPPRLPRPRPRPQMVPRP | -0.108 |
| RRIRLRPPRLPRPRPRPVNLPRP | 0.0275 |
| RRIRVRPPRLPRPRPRPDDHPRP | -0.106 |
| RRIRARPPRLPRPRPRPHQSPRP | 0.265 |
| RRIRVRPPRLPRPRPRPRCCPRP | 0.201 |
| RRIRMRPPRLPRPRPRPCICPRP | -0.0505 |
| RRIRDRPPRLPRPRPRPCYYPRP | -0.0165 |
| RRIRWRPPRLPRPRPRPSLGPRP | 0.338 |
| RRIRPRPPRLPRPRPRPHMPPRP | -0.154 |
| RRIRRRPPRLPRPRPRPEQIPRP | 0.0197 |
| RRIRRRPPRLPRPRPRPVWFPRP | 0.0857 |
| RRIRQRPPRLPRPRPRPCWIPRP | -0.209 |
| RRIRARPPRLPRPRPRPVADPRP | 1.44 |
| RRIRQRPPRLPRPRPRPAMGPRP | 0.127 |
| RRIRARPPRLPRPRPRPQQHPRP | 0.284 |
| RRIRARPPRLPRPRPRPMLHPRP | 0.206 |
| RRIRQRPPRLPRPRPRPENFPRP | -0.00776 |
| RRIRDRPPRLPRPRPRPHDNPRP | -0.323 |
| RRIRDRPPRLPRPRPRPWTQPRP | -0.124 |
| RRIRCRPPRLPRPRPRPDKAPRP | -0.0544 |
| RRIRVRPPRLPRPRPRPFYTPRP | 0.508 |

| Sequence | shrunken log2 fold change |
| --- | --- |
| RRIRARPPRLPRPRPRPRGLPRP | 0.628 |
| RRIRFRPPRLPRPRPRPRYRPRP | -0.4 |
| RRIRKRPPRLPRPRPRPNTAPRP | 0.159 |
| RRIRERPPRLPRPRPRPHDWPRP | -0.0393 |
| RRIRDRPPRLPRPRPRPAHTPRP | 0.0343 |
| RRIRIRPPRLPRPRPRPSQLPRP | -0.385 |
| RRIRFRPPRLPRPRPRPMIEPRP | 0.0675 |
| RRIRRRPPRLPRPRPRPANRPRP | -0.0151 |
| RRIRTRPPRLPRPRPRPRSLPRP | 0.19 |
| RRIRMRPPRLPRPRPRPMAEPRP | 2.79 |
| RRIRIRPPRLPRPRPRPFAIPRP | -0.886 |
| RRIRYRPPRLPRPRPRPSWFPRP | -0.942 |
| RRIRLRPPRLPRPRPRPSIRPRP | -0.727 |
| RRIRWRPPRLPRPRPRPHKAPRP | -0.000946 |
| RRIRLRPPRLPRPRPRPFYRPRP | -0.295 |
| RRIRERPPRLPRPRPRPMSNPRP | -0.16 |
| RRIRSRPPRLPRPRPRPSQDPRP | -0.296 |
| RRIRVRPPRLPRPRPRPKRWPRP | 0.706 |
| RRIRNRPPRLPRPRPRPLSAPRP | -0.097 |
| RRIRPRPPRLPRPRPRPNRAPRP | 0.371 |
| RRIRDRPPRLPRPRPRPDVHPRP | 0.244 |
| RRIRQRPPRLPRPRPRPWIHPRP | -0.103 |
| RRIRMRPPRLPRPRPRPTISPRP | 0.0688 |
| RRIRTRPPRLPRPRPRPTHDPRP | 0.139 |
| RRIRCRPPRLPRPRPRPSVTPRP | -0.288 |

| Sequence | shrunken log2 fold change |
| --- | --- |
| RRIRVRPPRLPRPRPRPMGCPRP | 0.0117 |
| RRIRGRPPRLPRPRPRPCPMPRP | 1.17 |
| RRIRRRPPRLPRPRPRPAVYPRP | 0.0519 |
| RRIRLRPPRLPRPRPRPCKTPRP | 0.0231 |
| RRIRNRPPRLPRPRPRPGFGPRP | 0.25 |
| RRIRARPPRLPRPRPRPEMEPRP | 1.3 |
| RRIRERPPRLPRPRPRPMLRPRP | -0.0352 |
| RRIRSRPPRLPRPRPRPQAEPRP | -0.0131 |
| RRIRFRPPRLPRPRPRPMKQPRP | -0.0442 |
| RRIRGRPPRLPRPRPRPNMKPRP | 0.275 |
| RRIRKRPPRLPRPRPRPWEKPRP | -0.00969 |
| RRIRHRPPRLPRPRPRPCNYPRP | -0.084 |
| RRIRRRPPRLPRPRPRPHVHPRP | 0.0274 |
| RRIRYRPPRLPRPRPRPNMKPRP | -0.815 |
| RRIRVRPPRLPRPRPRPEDTPRP | 0.106 |
| RRIRGRPPRLPRPRPRPCWSPRP | 0.144 |
| RRIRFRPPRLPRPRPRPEIPPRP | 0.163 |
| RRIRGRPPRLPRPRPRPTAFPRP | 1.19 |
| RRIRARPPRLPRPRPRPQGGPRP | 0.499 |
| RRIRERPPRLPRPRPRPRLPPRP | 0.35 |
| RRIRQRPPRLPRPRPRPMDVPRP | -0.0102 |
| RRIRMRPPRLPRPRPRPESPPRP | 2.01 |
| RRIRRRPPRLPRPRPRPWTFPRP | -0.103 |
| RRIRRRPPRLPRPRPRPFKSPRP | -0.336 |
| RRIRCRPPRLPRPRPRPMGAPRP | 0.144 |

| Sequence | shrunken log2 fold change |
| --- | --- |
| RRIRVRPPRLPRPRPRPQSMPRP | 0.229 |
| RRIRTRPPRLPRPRPRPMGAPRP | -0.0569 |
| RRIRMRPPRLPRPRPRPDKEPRP | -0.01 |
| RRIRARPPRLPRPRPRPKFDPRP | 0.376 |
| RRIRKRPPRLPRPRPRPCNGPRP | -0.0184 |
| RRIRRRPPRLPRPRPRPWPNPRP | -0.0193 |
| RRIRARPPRLPRPRPRPTYFPRP | 0.161 |
| RRIRHRPPRLPRPRPRPWLAPRP | -0.26 |
| RRIRCRPPRLPRPRPRPIMNPRP | -0.911 |
| RRIRHRPPRLPRPRPRPNIKPRP | -0.69 |
| RRIRNRPPRLPRPRPRPFAVPRP | -0.398 |
| RRIRGRPPRLPRPRPRPYSQPRP | -0.621 |
| RRIRRRPPRLPRPRPRPYRRPRP | 0.0385 |
| RRIRRRPPRLPRPRPRPGNQPRP | 0.0401 |
| RRIRFRPPRLPRPRPRPILDPRP | -0.0134 |
| RRIRWRPPRLPRPRPRPARSPRP | 0.252 |
| RRIRWRPPRLPRPRPRPILSPRP | -0.422 |
| RRIRERPPRLPRPRPRPLMFPRP | -0.32 |
| RRIRVRPPRLPRPRPRPKYHPRP | -0.373 |
| RRIRQRPPRLPRPRPRPHSDPRP | 0.0233 |
| RRIRPRPPRLPRPRPRPHITPRP | -0.759 |
| RRIRYRPPRLPRPRPRPGACPRP | -0.497 |
| RRIRKRPPRLPRPRPRPMEDPRP | -0.00186 |
| RRIRCRPPRLPRPRPRPVVPPRP | -0.168 |
| RRIRERPPRLPRPRPRPRMIPRP | -0.0503 |

| Sequence | shrunken log2 fold change |
| --- | --- |
| RRIRRRPPRLPRPRPRPRVGPRP | 0.68 |
| RRIRRRPPRLPRPRPRPDPQPRP | 1.23 |
| RRIRSRPPRLPRPRPRPPLCPRP | 0.357 |
| RRIRIRPPRLPRPRPRPTYEPRP | -0.458 |
| RRIRNRPPRLPRPRPRPQPGPRP | 0.285 |
| RRIRGRPPRLPRPRPRPQNSPRP | -0.506 |
| RRIRFRPPRLPRPRPRPMDCPRP | 0.00893 |
| RRIRNRPPRLPRPRPRPYKTPRP | -0.0391 |
| RRIRGRPPRLPRPRPRPRSYPRP | 0.288 |
| RRIRLRPPRLPRPRPRPRIPPRP | 0.09 |
| RRIRKRPPRLPRPRPRPGFEPRP | 0.32 |
| RRIRHRPPRLPRPRPRPKMLPRP | -0.353 |
| RRIRMRPPRLPRPRPRPHRPPRP | 0.066 |
| RRIRARPPRLPRPRPRPWVEPRP | 0.151 |
| RRIRFRPPRLPRPRPRPLNTPRP | -0.483 |
| RRIRWRPPRLPRPRPRPTNRPRP | -0.018 |
| RRIRHRPPRLPRPRPRPLLNPRP | -0.443 |
| RRIRARPPRLPRPRPRPCYWPRP | -0.000727 |
| RRIRCRPPRLPRPRPRPVLFPRP | -0.101 |
| RRIRTRPPRLPRPRPRPCHHPRP | -0.0688 |
| RRIRPRPPRLPRPRPRPTCLPRP | -0.105 |
| RRIRLRPPRLPRPRPRPIRYPRP | -0.272 |
| RRIRWRPPRLPRPRPRPPPMPRP | 0.72 |
| RRIRVRPPRLPRPRPRPDYDPRP | 0.00442 |
| RRIRGRPPRLPRPRPRPTIDPRP | 0.214 |

| Sequence | shrunken log2 fold change |
| --- | --- |
| RRIRERPPRLPRPRPRPHITPRP | -0.99 |
| RRIRMRPPRLPRPRPRPVRYPRP | 0.64 |
| RRIRRRPPRLPRPRPRPEQLPRP | 0.203 |
| RRIRGRPPRLPRPRPRPFTKPRP | -0.282 |
| RRIRYRPPRLPRPRPRPHTDPRP | -0.368 |
| RRIRPRPPRLPRPRPRPQHMPRP | -0.537 |
| RRIRWRPPRLPRPRPRPTYNPRP | 0.4 |
| RRIRPRPPRLPRPRPRPPCKPRP | 0.19 |
| RRIRARPPRLPRPRPRPYMCPRP | -0.773 |
| RRIRLRPPRLPRPRPRPFSVPRP | -0.323 |
| RRIRSRPPRLPRPRPRPQYWPRP | -0.397 |
| RRIRPRPPRLPRPRPRPRDGPRP | 0.694 |
| RRIRIRPPRLPRPRPRPAHIPRP | -0.063 |
| RRIRPRPPRLPRPRPRPQGQPRP | 0.0372 |
| RRIRLRPPRLPRPRPRPMMNPRP | -0.18 |
| RRIRNRPPRLPRPRPRPPFNPRP | -0.299 |
| RRIRHRPPRLPRPRPRPSDPPRP | -0.0545 |
| RRIRSRPPRLPRPRPRPAQMPRP | 0.437 |
| RRIRERPPRLPRPRPRPQHTPRP | -0.32 |
| RRIRLRPPRLPRPRPRPDWCPRP | 0.0707 |
| RRIRYRPPRLPRPRPRPKRNPRP | -0.374 |
| RRIRTRPPRLPRPRPRPKEAPRP | 0.00564 |
| RRIRIRPPRLPRPRPRPPTLPRP | -0.431 |
| RRIRYRPPRLPRPRPRPPVPPRP | 0.486 |
| RRIRPRPPRLPRPRPRPKLYPRP | 0.0311 |
